Reference: patent publication US20090288225A1, “Novel Aromatic Acyltransferase Genes” (Aomori Prefecture, priority 2006, published 2009)

B1: LeGT13-30: lobelia 1-O-acyl-β-D-glucose synthase, 486 amino acid residues, SEQ ID NO: 18 (protein)
chain: MGSLQGTTTVENLTHVFLVSFPGQGHVNPLLRLGKILASKGLLVTFSAPEMVGEIIKGANKYISDDELTPIGDGMIRFEFFSDSLGNTKEDNALRGNMDLYMPQLATFAKKSLSDILVKHQHHGRPVACLINNPFIPWISELAEEFNIPSAVLWVQSCASFSAYYHYHHNLVPFPTENEPERDVQLPSMPLLKYDEIPGFLLPSSPYGFLRRAILGQFKLLSKPICILVESFQELEDDCINYLSTLCPIKPIGPLFINPNVKTGSSIRGDFMKVEDCIDWLNTRADSSVVYISFGSIVYVKQEQITEIARGLADSGLSFLWAFKQPGVDMGLKPPSLPDGFLEEVKGRGKVVEWCSQEAVLGHPAVSCFMSHCGWNSTMEALSSGVPVAAFPIWGDQVTDAKFLVDEFKVGIRMCRGEADINKKVVPREEIARCLLAATSGPKAEELRRNALKWKKAAADSVGAGGSSDRNLEEFVGSIKKGVIGH
modifications: Lobelia erinus cv.Riviera Midnight Blue; Amino acid sequence of UDP-glucose hydroxycinnamic acid 1-O-glucosyltransferase
B2: 3′AT protein: acyltransferase purified from butterfly pea petals, transfers aromatic acyl group to glucosyl group at position 3′ of anthocyanin (after Mono Q) (protein)
chain: GTIVEFLPGFDGPLPFVLETGYVGVGEGEDVQVFYYFVESENNPNEDPLMLWLTGGPGCSAFSGLALEIGPLIFKREEYNGGLPNLILRPHSWTKVSSIIFVDLPVSTGFTYARTDAAAQRSDWTLVHHAHEFLRKWLIDHPKFLQNELYIGGDSYSGIPIPVIVQEISQENEKGIQPWINLQGYILGNAITTRREKGYSIPFAHGMALISDELYESLRKNCKGEYLNVDPENVLCSRDIDSYSKATSRISFAHILERTCNSGDIKTSLRRSTIQRHHTKKFLNTNLKLPPLTCRTYANFQCGLWANDDNVRSALHIHKGSIGEWHRCSIRLPFTSDIPNSFEYHVNLSRKGYYRSLIYSGDHDMMVPFLGTQAWIRSLNYSIVDDWRPWNTNGQVAGYTRTYSNRMTYATIKGGGHTAPEFKPEECFAMYSRWISKRPLYENNTMSSYTNLASIL

How the values were obtained:
[1] = UDP-glucose:hydroxycinnamate 1-O-glucosyltransferase activity of recombinant proteins from E. coli; format: biochemical; conditions: against all four types of hydroxycinnamic acid used
Protocol: The transformed E. coli was shaking-cultured overnight in 3 ml of LB medium containing 50 μg/ml kanamycin and 34 μg/ml chloramphenicol. This culture broth (500 μl) was inoculated into LB medium (50 ml) and shaking-cultured until absorbance at 600 nm reached 0.4. Then, isopropyl-β-D-thiogalactoside (IPTG) was added to give a final concentration of 0.4 mM. The cells were shaking-cultured at 25° C. for 16 hr and then harvested by refrigerated centrifugation (8000 rpm, 4° C., 20 min). CtGT11-4 protein was partially purified from the cells using Ni-NTA mini-column according to the method recommended by the manufacturer. […]
For measuring enzyme activity, a 30 μl reaction solution containing 100 mM potassium phosphate buffer (pH 7.4), 30 pmole of UDP-glucose, 30 pmole of hydroxycinnamic acid and 15 μl of recombinant protein solution was reacted at 30° C. […] The enzyme reaction products were analyzed by reversed-phase high performance liquid chromatography (Shiseido NanoSpace system) using Develosil C30-UG-5 (1.5 i.d.×250 mm). […] The eluted materials were detected with a PDA detector, and the resultant data were analyzed to thereby quantitatively determine 1-O-acyl-β-D-glucose. […]
LeGT13-20 and LeGT13-30 genes were expressed using pET30Ek/LIC System (Novagen). […] Resultant several clones were analyzed to confirm the nucleotide sequences thereof, and then transformed into E. coli BL21-CodonPlus(DE3)-RP. […]

[2] = Acyltransferase activity of purified 3′AT, substrates preternatin C5 and 1-O-p-coumaroyl-β-D-glucose; format: biochemical, butterfly pea (Clitoria ternatea); conditions: 3′AT activity
Protocol: A reaction solution (20 μl) containing 100 mM phosphate buffer (pH 6.5), 0.4 mM anthocyanin (4 μl), 0.5 mM 1-O-acyl-β-D-glucose (4 μl) and an enzyme solution (8 μl) was reacted at 30° C. The reaction was terminated by adding 4 μl of 1M aqueous hydrochloric acid solution. After addition of 24 μl of 5% acetonitrile containing 0.05 M TFA, the reaction solution was filtered with Millex-LH filter (Millipore) and then analyzed by HPLC by feeding a 10 μl aliquot.
HPLC analysis of anthocyanin acyltransferase reaction products were performed with Develosil ODS-UG-5 column (3.0 i.d.×250 mm; Nomura Chemical) at a column temperature of 35° C. Against an initial solvent that was 0.05 M trifluoroacetate (TFA)-containing 5% acetonitrile (MeCN) aqueous solution, 0.05 M TFA-containing 40% MeCN was added with a linear concentration gradient from 14 to 86% (20 min) and the reaction products were eluted at a flow rate of 0.5 ml/min. The reaction products were detected with PDA and their molecular weights were confirmed by LC-MS/MS. […]

Molecule | glucosyltransferase activity [1] | specific activity [2] [pkat/mg]
B1 | glucosyltransferase activity was confirmed | 
B2 |  | 1492.6
